Reference: publication PMC11211068 (The Journal of Experimental Medicine, 2024)

Legend:
[1] = biological target: H1 HA from A/Brisbane/59/2007 H1N1, recombinant (IRR FR-65) (Influenza A virus A/Brisbane/59/2007 …, UniProt D5F1Q8, strain); assay: ELISA
[2] = biological target: H1 HA from A/Solomon Islands/3/2006 H1N1, recombinant (IRR FR-67) (Influenza A virus A/Solomon …, UniProt A7Y8I1, strain); assay: ELISA
[3] = biological target: T1, H1 HA from A/Michigan/45/2015 H1N1, recombinant (Immune Technology) (Influenza A virus A/Michigan/45/2015 …, UniProt A0A1J0CXU0, strain); assay: ELISA
[4] = biological target: H1 HA from A/Norway/3206-3/2009 H1N1, recombinant (IRR FR-697) (Influenza A virus A/Norway/3206-3/2009 …, UniProt C3W5S1, strain); assay: ELISA
[5] = biological target: H1 HA from A/California/04/2009 H1N1pdm09, recombinant (Immune Technology) (Influenza A virus A/California/04/2009 …, UniProt C3W5S1, strain); assay: ELISA
[6] = biological target: T1, H1 HA from A/Michigan/45/2015 H1N1, …; assay: BLI

Measured: binding result

B1: 05.GC.w2.3C10 (antibody, V domains shown)
VH: EVQLVQSGAEVKKPGSSVRVSCKASGGTFSAISWVRQAPGQGLEWMGGIIPVFGTANYAQKFQGRVTITADDSTSTAYMEVSSLRSDDTAVYYCAREETWKGATIGVMGIWGQGTMVTVSS
VL: DIQMTQSPSSLSASVGDRVTITCRASQSISSYLNWYQHKPGKAPKLLIFTASNLQSGVPSRFSGGGSGTDFTLTISSLQPEDFATYYCQQSYTSPRTFGQGTKVEIK
binds: [1] | [2] | [3]

B2: 05.GC.w13.02 (antibody, V domains shown)
VH: QVQLVQSGTEVKKPGSSVKVSCKASGVTFSSYAMSWVRQAPGQGLEWMGGFIPILGTANYAQKFQGRLTITADGLTGTVYMELSRLRSEDTAVYYCAREVTWKGASIGVLGIWGQGTMVSVSA
VL: DIQMTQSPSSLSASVGDRVIITCRANQSIGGYLNWYQQKPGKAPNLLIFTASTLQSGVPSRFSGGGSGTDFTLTISSLQPEDFATYYCQQNYNTPRTFGQGTKVDIK
not listed: [6]
binds: all other assays above

B3: 05.GC.w13.02 Fab, His6 tag removed with thrombin (Fab, V domains shown)
VH: QVQLVQSGTEVKKPGSSVKVSCKASGVTFSSYAMSWVRQAPGQGLEWMGGFIPILGTANYAQKFQGRLTITADGLTGTVYMELSRLRSEDTAVYYCAREVTWKGASIGVLGIWGQGTMVSVSA
VL: DIQMTQSPSSLSASVGDRVIITCRANQSIGGYLNWYQQKPGKAPNLLIFTASTLQSGVPSRFSGGGSGTDFTLTISSLQPEDFATYYCQQNYNTPRTFGQGTKVDIK
binds: [6]

B4: 05.GC.w13.01 (antibody, V domains shown)
VH: QVQLVQSGAEVKKPGSSVKVSCEASGVTFSSYAVSWVRQAPGQGLEWMGGIIPIVGTANYAQKFQGRVTITADGLTSTVYMELSRLRSEDTAVYFCAREATWKGSSIGVLGIWGQGTMVTVSA
VL: DIQMTQSPSSLSASVGDRVTITCRASQSISDYLNWYQQKPGKAPSLLIFSASTLQSGVPSRFSGSGSGTDFTLTISSLQPEDFATYYCQQNYNTPRTFGQGTKVEIK
not listed: [6]
binds: all other assays above
